# Test results published in ChEMBL document CHEMBL1157628, “Carbonic anhydrase activators. The first activation study of a coral secretory isoform with amino acids and amines” (Bioorg Med Chem, 2010).
# Experiments:
# [1] = substrate: N[C@@H](Cc1c[nH]c2ccccc12)C(=O)O; assay: (§1) Activity of human full length CA6 at 10 uM by stopped flow CO2 hydration assay
# [2] = substrate: N[C@H](Cc1c[nH]c2ccccc12)C(=O)O; assay: as §1
protein,measurement,setting,value
"Carbonic anhydrase 6 (Homo sapiens), P23280 (protein) MRALVLLLSLFLLGGQAQHVSDWTYSEGALDEAHWPQHYPACGGQRQSPINLQRTKVRYNPSLKGLNMTGYETQAGEFPMVNNGHTVQISLPSTMRMTVADGTVYIAQQMHFHWGGASSEISGSEHTVDGIRHVIEIHIVHYNSKYKSYDIAQDAPDGLAVLAAFVEVKNYPENTYYSNFISHLANIKYPGQRTTLTGLDVQDMLPRNLQHYYTYHGSLTTPPCTENVHWFVLADFVKLSRTQVWKLENSLLDHRNKTIHNDYRRTQPLNHRVVESNFPNQEYTLGSEFQFYLHKIEEILDYLRRALN",kcat,[1],9.5 ×10⁵ /s
same,kcat,[2],4.8 ×10⁵ /s
